Laboratory results reported in US20250235545A1, “POLYPEPTIDE CONJUGATE AND USE THEREOF” (SHANGHAI CHIXI BIOMEDICAL TECHNOLOGY CO., LTD, priority 2024, published 2025).
Converted amounts (≈) assume the structure as drawn. Like-named read-outs stand apart in the source and are kept apart here. Where a SMILES comes first, the peptide text is derived from it. The star is where a group is joined. NEt(2-(20S-CPT-7-yl)ethyl) = CCN(CCc1c2c(nc3ccccc13)-c1cc3c(c(=O)n1C2)COC(=O)[C@]3(O)CC)*; X1 = CC[C@@]1(O)C(=O)OCc2c1cc1n(c2=O)Cc2c-1nc1ccccc1c2CCN(C1CCC1)*; X3 = CC[C@@]1(O)C(=O)OCc2c1cc1n(c2=O)Cc2c-1nc1ccccc1c2CCN(C1CC1)*; X7 = CC[C@@]1(O)C(=O)OCc2c1cc1n(c2=O)Cc2c-1nc1ccccc1c2CCN(C)*; Propanoyl(3-maleimido) = O=C1C=CC(=O)N1CCC(=O)*; PEG6 = NCCOCCOCCOCCOCCOCCOCCC(=O)O

How the values were obtained:
A2780 (ovarian cancer) = test: cells; assay type: cell-based; details: CCK8, 48 h; Table 1
Summary of the method: (§1)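 Cells seeded at 5,000 cells/well in RPMI1640 or DMEM high-glucose with 10% FBS and 1 mM sodium pyruvate, exposed to graded drug concentrations for 48 h at 37° C., 5% CO2; 0.1% DMSO controls. CCK8 added for ~2 h, absorbance 450 nm; survival rates and IC50 calculated.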

[1] = system: A549 (non-small cell lung cancer); test: cells; assay type: cell-based; details: CCK8, 48 h; Table 1
Summary of the method: as §1

SJSA-1 (sarcoma tissue) = test: cells; assay type: cell-based; details: CCK8, 48 h; Table 1
Summary of the method: as §1

[2] = system: SKBR3 (breast cancer tissue); test: cells; assay type: cell-based; details: CCK8, 48 h; Table 1
Summary of the method: as §1

[3] = system: sarcoma SJSA-1 tumor model; details: Table 2
Summary of the method: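 SJSA-1 cells (2×10^7, DMEM/10% FBS, under 15 passages) implanted subcutaneously in right chest of female BALB/c nude mice, 6-8 weeks old. At ≥100 mm^3, randomized three per group; dosing once weekly for three weeks, saline as control, day 1 = first treatment.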

[4] = system: colo320 colorectal cancer tumor model
Summary of the method: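 Female BALB/c nude mice, 6–8 weeks old, received 7.5×10^6 colo320 cells subcutaneously in the right chest. Once tumors reached at least 120 mm^3 they were randomized three per group. Treatment with test agents or saline control was given once weekly for four weeks.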

[5] = MTD determination in mice (Examples 27, 36, 44); assay type: in vivo; details: female, mouse, in vivo; mice, monitored for 14 d; Table 4
Text: Test animals: 6-8 weeks old mice, all female; mice were grouped randomly, with six mice in each group, administered with drugs at different concentration gradients separately and monitored for 14 d. A mouse was euthanized at a loss of 20% of its initial weight and deemed to have died of poisoning.

[6] = Tumor homogenate activation efficiency, ovarian cancer tissue (Examples 28, 37); assay type: in vitro ADME; details: pH 5.0, 37° C., 2 h; Table 5
Experimental: (§2) Buffer preparation: 50 mM PH buffer (MES), 250 mM NaCl, pH adjusted to 5.0 with 0.5 M of sodium hydroxide.
(§3) The polypeptide conjugate was prepared into a 1 mg/ml solution with pH 5.0 buffer, 100 μg of tumor tissue homogenate was added, (the tumor tissue homogenate was the homogenate of tumor tissues prepared with a Jingxin F6/10 handheld homogenizer), and the solution was placed at 37° C. for 2 h. The tumor tissue homogenate could effectively activate the polypeptide conjugate and release Belotecan, and the activation efficiencies of the drugs in tumor tissues were compared by high-performance liquid chromatography (HPLC) allowing determination of a decrease in the compounds and an increase in Belotecan:
(§4) Release percentage=peak area of Belotecan/total peak area of Belotecan and all other Belotecan-containing compounds
(§5) The polypeptide conjugate was prepared into a 1 mg/ml solution with pH 5.0 buffer, 100 μg of tumor tissue homogenate was added, (the tumor tissue homogenate was the homogenate of tumor tissues prepared with a Jingxin F6/10 handheld homogenizer), and the solution was placed at 37° C. for 2 h. The tumor tissue homogenate could effectively activate the polypeptide conjugate and release Belotecan, and the activation efficiencies of the drugs in tumor tissues were compared by HPLC allowing determination of a decrease in the compounds and an increase in Belotecan: […]

[7] = Tumor homogenate activation efficiency, sarcoma tissue (Examples 28, 37); assay type: in vitro ADME; details: pH 5.0, 37° C., 2 h; Table 5
Experimental: as §2, §3, §4, §5

[8] = Tumor homogenate activation efficiency, breast cancer tissue (Examples 28, 37); assay type: in vitro ADME; details: pH 5.0, 37° C., 2 h; Table 5
Experimental: as §2, §3, §4, §5

[9] = Tumor homogenate activation efficiency, non-small cell lung cancer tissue (Examples 28, 37); assay type: in vitro ADME; details: pH 5.0, 37° C., 2 h; Table 5
Experimental: as §2, §3, §4, §5

[10] = Tumor homogenate activation efficiency, small cell lung cancer tissue (Example 28); assay type: in vitro ADME; details: pH 5.0, 37° C., 2 h; Table 5
Experimental: as §2, §3, §4

[11] = Homogenate activation efficiency, heart tissue (Examples 28, 37); assay type: in vitro ADME; details: pH 5.0, 37° C., 2 h; Table 5
[12] = 15 mg/kg once a week for three weeks
[13] = 45 mg/kg once a week for three weeks
[14] = 15 mg/kg once a week for four weeks, Table 3
[15] = 45 mg/kg once a week for four weeks, Table 3
[16] = Table 14 (Example 43), dose 45 mg/kg, once a week for four weeks, BALB/c mice
[17] = Table 13 (Example 42), dose 45 mg/kg, once a week for four weeks, BALB/c mice

SMILES	IC50 A2780 (ovarian cancer) (A2780 (ovarian cancer)) [µg/mL]	IC50 A549 (non-small cell lung cancer) [1] [µg/mL]	IC50 SJSA-1 (sarcoma tissue) (SJSA-1 (sarcoma tissue)) [µg/mL]	IC50 SKBR3 (breast cancer tissue) [2] [µg/mL]	Mouse weight (%) [3, 12]	Mouse weight (%) [3, 13]	SJSA-1 (sarcoma tissue) mean tumor volume (mm^3) [3, 13] [mm^3]	SJSA-1 (sarcoma) Growth rate (%) [3, 13] [%]	Mouse weight (%) [4, 14]	Mouse weight (%) [4, 15]	colo320 (colorectal cancer cell) growth rate (%) [4, 15] [%]	colo320 (colorectal cancer cell) mean tumor volume (mm^3) [4, 15] [mm^3]	Mouse weight (%) [4, 16]	MTD at 14 d [5] [mg/kg]	Percentage of release efficiency (%) Ovarian cancer tissue (A2780) [6] [%]	Percentage of release efficiency (%) Sarcoma tissue (SJSA1) [7] [%]	Percentage of release efficiency (%) Breast cancer tissue (SKBR3) [8] [%]	Percentage of release efficiency (%) Non-small cell lung cancer tissue (A549) [9] [%]	Percentage of release efficiency (%) Small cell lung cancer tissue (NCI-H841) [10] [%]	Percentage of release efficiency (%) Heart tissue [11] [%]	also measured
CCN(CCc1c2c(nc3ccccc13)-c1cc3c(c(=O)n1C2)COC(=O)[C@]3(O)CC)C(=O)CNC(=O)[C@H](CCCCN)NC(=O)[C@H](C)NC(=O)[C@H](C)NC(=O)CCOCCOCCOCCOCCOCCOCCNC(=O)CCN1C(=O)C=CC1=O [MI-6PEG-AAKG-D2] ({Propanoyl(3-maleimido)-PEG6}-AAKG-{NEt(2-(20S-CPT-7-yl)ethyl)})	0.80 (≈ 0.649 µM)	1.32 (≈ 1.07 µM)	0.49 (≈ 0.397 µM)	2.62 (≈ 2.12 µM)	+27%	+31%	945.6	791.30	+27%	+24%	470.58	521.2	+24%	350	85.8	76.6	69.5	69.8	68	1.5	SJSA-1 (sarcoma tissue) mean tumor volume (mm^3) [3, 12]: 1215.6 mm^3; SJSA-1 (sarcoma) Growth rate (%) [3, 12]: 980.32%; colo320 (colorectal cancer cell) growth rate (%) [4, 14]: 943.33%; colo320 (colorectal cancer cell) mean tumor volume (mm^3) [4, 14]: 1044.8 mm^3; colo320 (colorectal cancer cell) growth rate (%) [4, 16]: 470.58%; colo320 (colorectal cancer cell) mean tumor volume (mm^3) [4, 16]: 521.2 mm^3
CCN(CCc1c2c(nc3ccccc13)-c1cc3c(c(=O)n1C2)COC(=O)[C@]3(O)CC)C(=O)CNC(=O)[C@H](CC(N)=O)NC(=O)[C@H](C)NC(=O)CNC(=O)CCOCCOCCOCCOCCOCCOCCNC(=O)CCN1C(=O)C=CC1=O [MI-6PEG-GANG-D2] ({Propanoyl(3-maleimido)-PEG6}-GANG-{NEt(2-(20S-CPT-7-yl)ethyl)})						+18%	1065.2	918.28		+39%	450.72	499.2	+39%	200	69.9	88.4	68.8	65.9	63.1	1.7	colo320 (colorectal cancer cell) growth rate (%) [4, 16]: 450.72%; colo320 (colorectal cancer cell) mean tumor volume (mm^3) [4, 16]: 499.2 mm^3
CC[C@@]1(O)C(=O)OCc2c1cc1n(c2=O)Cc2c-1nc1ccccc1c2CCN(C)C(=O)CNC(=O)[C@H](Cc1ccccc1)NC(=O)CNC(=O)CNC(=O)CCOCCOCCOCCOCCOCCOCCNC(=O)CCN1C(=O)C=CC1=O [MI-6PEG-GGFG-D1] ({Propanoyl(3-maleimido)-PEG6}-GGFG-X7)	6.84 (≈ 5.65 µM)	10.78 (≈ 8.91 µM)	11.79 (≈ 9.74 µM)	16.49 (≈ 13.6 µM)						+19%	605.35	671.3		250	67.2	81.5	74.8	71.7	66.3	1.7	Mouse weight (%) [4, 17]: +19%; colo320 (colorectal cancer cell) growth rate (%) [4, 17]: 605.35%; colo320 (colorectal cancer cell) mean tumor volume (mm^3) [4, 17]: 671.3 mm^3
CC[C@@]1(O)C(=O)OCc2c1cc1n(c2=O)Cc2c-1nc1ccccc1c2CCN(C(=O)CNC(=O)[C@H](Cc1ccccc1)NC(=O)CNC(=O)CNC(=O)CCOCCOCCOCCOCCOCCOCCNC(=O)CCN1C(=O)C=CC1=O)C1CC1 [MI-6PEG-GGFG-D6] ({Propanoyl(3-maleimido)-PEG6}-GGFG-X3)	1.19 (≈ 0.963 µM)	1.31 (≈ 1.06 µM)	0.73 (≈ 0.59 µM)	2.30 (≈ 1.86 µM)	+28%	+2%			+29%	+19%					66.3	80.7	67.1	83.7	72.1	2.4	
CC[C@@]1(O)C(=O)OCc2c1cc1n(c2=O)Cc2c-1nc1ccccc1c2CCN(C(=O)CNC(=O)[C@H](Cc1ccccc1)NC(=O)CNC(=O)CNC(=O)CCOCCOCCOCCOCCOCCOCCNC(=O)CCN1C(=O)C=CC1=O)C1CCC1 [MI-6PEG-GGFG-D7] ({Propanoyl(3-maleimido)-PEG6}-GGFG-X1)	1.68 (≈ 1.34 µM)	1.32 (≈ 1.06 µM)	1.28 (≈ 1.02 µM)	2.40 (≈ 1.92 µM)	+24%	+27%			+28%	+20%					73.6	69.7	72.7	75.2	76.4	2.9	
